Reference: patent US20250034277A1 (SUZHOU ALPHAMAB, published 2025)

Experiments:
[1] = target: T1, FXI in standard human plasma (human, UniProt P03951 19-625); test: cell-based or functional assay
[2] = target: T1, FXI in standard human plasma; test: cell-based or functional assay; remark: listed apart in the source
FXI in monkey plasma = FXI in monkey plasma (monkey); test: cell-based or functional assay
FXI in rabbit plasma [3] = target: FXI in rabbit plasma (rabbit); test: cell-based or functional assay
hFXI-CHis protein = target: T2, hFXI-CHis protein (human, UniProt P03951 19-625); test: BLI, antibody on Protein A biosensor, hFXI-Chis 50-3.125 nM, 1:1 model
T2 construct: FXI is said in the background to be a dimer; nothing is said of the construct; also called human FXI; human FXI factor protein; not shown: C-terminal His tag (CHis)

FXI in cynomolgus plasma = FXI in cynomolgus plasma (cynomolgus); test: cell-based or functional assay
FXI in rabbit plasma [4] = target: FXI in rabbit plasma (rabbit); test: cell-based or functional assay; remark: listed apart in the source
FXI in rat plasma = FXI in rat plasma (rat); test: cell-based or functional assay

B1: reference antibody BAY1213790 (antibody, human IgG1, kappa, V domains shown)
VH: EVQLLESGGGLVQPGGSLRLSCAASGFTFSQYGMDWVRQAPGKGLEWVSGIGPSGGSTVYADSVKGRFTISRDNSKNTLYLQMNSLRAEDTAVYYCTRGGPYYYYGMDVWGQGTTVTVSS
VL: DIQMTQSPSSLSASVGDRVTITCQASQDISNYLNWYQQKPGKAPKLLIYDASNLETGVPSRFSGSGSGTDFTFTISSLQPEDIATYYCQQADSFPVTFGGGTKVEIKR
notes: Anti-FXI antibody developed by Bayer
**Q.** Which “APTT ratio in standard human plasma at 0.1 µg/mL” value [1] does the source give for B1 here?
**A.** 1 ratio

**Q.** What about the “APTT ratio in standard human plasma at 0.5 µg/mL” value [1] of the same binder?
**A.** 1.14 ratio

**Q.** And the “APTT ratio in standard human plasma at 1 µg/mL” value [1]?
**A.** 1.27 ratio

**Q.** What about the “APTT ratio in standard human plasma at 2 µg/mL” value [1] of the same binder?
**A.** 1.58 ratio

**Q.** What about the “APTT ratio in standard human plasma at 5 µg/mL” value [1] of the same binder?
**A.** 1.98 ratio

**Q.** And the “APTT ratio in standard human plasma at 10 µg/mL” value [1]?
**A.** 2.22 ratio

**Q.** What about the “whole blood APTT in standard human plasma at 0.1 µg/mL” value [2] of the same binder?
**A.** 22.9

**Q.** And the “whole blood APTT in standard human plasma at 0.5 µg/mL” value [2]?
**A.** 26.3

**Q.** What about the “whole blood APTT in standard human plasma at 1 µg/mL” value [2] of the same binder?
**A.** 29.2

**Q.** And the “whole blood APTT in standard human plasma at 2 µg/mL” value [2]?
**A.** 36.4

**Q.** What about the “whole blood APTT in standard human plasma at 5 µg/mL” value [2] of the same binder?
**A.** 45.6

**Q.** What about the “whole blood APTT in standard human plasma at 10 µg/mL” value [2] of the same binder?
**A.** 51.1

**Q.** What about the “whole blood APTT in monkey plasma at 0.1 µg/mL” value (FXI in monkey plasma) of the same binder?
**A.** 21

**Q.** What about the “whole blood APTT in monkey plasma at 0.5 µg/mL” value (FXI in monkey plasma) of the same binder?
**A.** 23.1

**Q.** And the “whole blood APTT in monkey plasma at 1 µg/mL” value (FXI in monkey plasma)?
**A.** 25.6

**Q.** And the “whole blood APTT in monkey plasma at 2 µg/mL” value (FXI in monkey plasma)?
**A.** 30.2

**Q.** And the “whole blood APTT in monkey plasma at 5 µg/mL” value (FXI in monkey plasma)?
**A.** 37.1

**Q.** And the “whole blood APTT in monkey plasma at 10 µg/mL” value (FXI in monkey plasma)?
**A.** 42.5

**Q.** What about the “whole blood APTT in rabbit plasma at 0.1 µg/mL” value (FXI in rabbit plasma [3]) of the same binder?
**A.** 15.3

**Q.** What about the “whole blood APTT in rabbit plasma at 0.5 µg/mL” value (FXI in rabbit plasma [3]) of the same binder?
**A.** 16

**Q.** What about the “whole blood APTT in rabbit plasma at 1 µg/mL” value (FXI in rabbit plasma [3]) of the same binder?
**A.** 16.4

**Q.** And the “whole blood APTT in rabbit plasma at 2 µg/mL” value (FXI in rabbit plasma [3])?
**A.** 18.1

**Q.** What about the “whole blood APTT in rabbit plasma at 5 µg/mL” value (FXI in rabbit plasma [3]) of the same binder?
**A.** 24.1

**Q.** What about the “whole blood APTT in rabbit plasma at 10 µg/mL” value (FXI in rabbit plasma [3]) of the same binder?
**A.** 28.8

**Q.** And the Kd (hFXI-CHis protein)?
**A.** 4.12 nM

B2: reference antibody 14E11 (antibody, human IgG1, kappa, V domains shown)
VH: QVQLEESGPGLVAPSQSLSITCTVSGFSLTGYGIYWVRQPPGKGLEWLGMIWGDGRTDYNSALKSRLSISKDNSKSQVFLKMNSLQTDDTARYYCARDYYGSKDYWGQGTTLTVSS
VL: DIVMTQSHKFMSTSVGDRVSITCKASQDVSTAVAWYQQKPGQSPKLLIYLTSYRNTGVPDRFTGSGSGTDFTFTISSVQAEDLAVYYCQQHYKTPYSFGGGTKLERLR
**Q.** Which results are given for B2?
**A.** APTT ratio in standard human plasma at 0.1 µg/mL [1]: 1 ratio; APTT ratio in standard human plasma at 0.5 µg/mL [1]: 1.09 ratio; APTT ratio in standard human plasma at 1 µg/mL [1]: 1.23 ratio; APTT ratio in standard human plasma at 2 µg/mL [1]: 1.67 ratio; APTT ratio in standard human plasma at 5 µg/mL [1]: 2.05 ratio; APTT ratio in standard human plasma at 10 µg/mL [1]: 2.09 ratio; APTT ratio in cynomolgus plasma at 0.1 µg/mL (FXI in cynomolgus plasma): 1 ratio; APTT ratio in cynomolgus plasma at 0.5 µg/mL (FXI in cynomolgus plasma): 1.07 ratio; APTT ratio in cynomolgus plasma at 1 µg/mL (FXI in cynomolgus plasma): 1.18 ratio; APTT ratio in cynomolgus plasma at 2 µg/mL (FXI in cynomolgus plasma): 1.89 ratio; APTT ratio in cynomolgus plasma at 5 µg/mL (FXI in cynomolgus plasma): 2.46 ratio; APTT ratio in cynomolgus plasma at 10 µg/mL (FXI in cynomolgus plasma): 2.53 ratio; APTT ratio in rabbit plasma at 0.1 µg/mL (FXI in rabbit plasma [4]): 0.85 ratio; APTT ratio in rabbit plasma at 0.5 µg/mL (FXI in rabbit plasma [4]): 0.88 ratio; APTT ratio in rabbit plasma at 1 µg/mL (FXI in rabbit plasma [4]): 0.93 ratio; APTT ratio in rabbit plasma at 2 µg/mL (FXI in rabbit plasma [4]): 1.17 ratio; APTT ratio in rabbit plasma at 5 µg/mL (FXI in rabbit plasma [4]): 1.88 ratio; APTT ratio in rabbit plasma at 10 µg/mL (FXI in rabbit plasma [4]): 2.05 ratio; APTT ratio in rat plasma at 0.5 µg/mL (FXI in rat plasma): 1.08 ratio; APTT ratio in rat plasma at 1 µg/mL (FXI in rat plasma): 1.04 ratio; APTT ratio in rat plasma at 2 µg/mL (FXI in rat plasma): 1.13 ratio; APTT ratio in rat plasma at 5 µg/mL (FXI in rat plasma): 1.37 ratio; APTT ratio in rat plasma at 10 µg/mL (FXI in rat plasma): 1.34 ratio; APTT ratio in rat plasma at 30 µg/mL (FXI in rat plasma): 1.37 ratio; whole blood APTT in standard human plasma at 0.1 µg/mL [2]: 22.9; whole blood APTT in standard human plasma at 0.5 µg/mL [2]: 25.1; whole blood APTT in standard human plasma at 1 µg/mL [2]: 28.3; whole blood APTT in standard human plasma at 2 µg/mL [2]: 38.3; whole blood APTT in standard human plasma at 5 µg/mL [2]: 47.2; whole blood APTT in standard human plasma at 10 µg/mL [2]: 48.1; whole blood APTT in monkey plasma at 0.1 µg/mL (FXI in monkey plasma): 20.9; whole blood APTT in monkey plasma at 0.5 µg/mL (FXI in monkey plasma): 22.4; whole blood APTT in monkey plasma at 1 µg/mL (FXI in monkey plasma): 24.7; whole blood APTT in monkey plasma at 2 µg/mL (FXI in monkey plasma): 39.6; whole blood APTT in monkey plasma at 5 µg/mL (FXI in monkey plasma): 51.4; whole blood APTT in monkey plasma at 10 µg/mL (FXI in monkey plasma): 52.8; whole blood APTT in rabbit plasma at 0.1 µg/mL (FXI in rabbit plasma [3]): 15.6; whole blood APTT in rabbit plasma at 0.5 µg/mL (FXI in rabbit plasma [3]): 16.1; whole blood APTT in rabbit plasma at 1 µg/mL (FXI in rabbit plasma [3]): 17.2; whole blood APTT in rabbit plasma at 2 µg/mL (FXI in rabbit plasma [3]): 21.5; whole blood APTT in rabbit plasma at 5 µg/mL (FXI in rabbit plasma [3]): 34.5; whole blood APTT in rabbit plasma at 10 µg/mL (FXI in rabbit plasma [3]): 37.8
